Results as given in patent publication US20080206264A1.
Bridge positions count the residues as written; N and C are the ends. Ends that are not written are not given here.

Target: 447-52D Fv fragment
Experiment: fluorescence quenching of 447Fv upon titration with the peptide

## CRKSIHCGPGRCFYTTGC (disulfide 1-18, 7-12) [R5A-M1 peptide (disulfide-constrained R5A mimic peptide 1)]
  Kd: 10 nM
